These results are taken from doi:10.1101/2021.03.23.436578 (bioRxiv, 2021).

This series deals with the molecule itself. In words: mass photometry.

B1: Cavin1 (1-190) (domain or fragment, UniProt O54724 1-190, looked up)
chain: MEDVTLHIVERPYSGFPDASSEGPEPTQGEARATEEPSGTGSDELIKSDQVNGVLVLSLLDKIIGAVDQIQLTQAQLEERQAEMEGAVQSIQGELSKLGKAHATTSNTVSKLLEKVRKVSVNVKTVRGSLERQAGQIKKLEVNEAELLRRRNFKVMIYQDEVKLPAKLSVSKSLKESEALPEKEGDELGE
Take B1: the “stoichiometry N” value was determined as 3.
